Test results: patent publication US20220184184A1, “GLUCOSE SENSITIVE INSULIN DERIVATIVES” (Novo Nordisk A/S, priority 2019, published 2022)

How the values were obtained:
[1] = Alizarin red (ARS) colorimetric displacement assay, binding of boron compounds to glucose; details: statement in words
Experimental: The alizarin-red binding assay is a colorimetric assay used to determine the inhibition affinity of boronate/boroxole compounds to glucose. The assay is based on a colour shift of alizarin-red upon binding to boronate, which shift can be followed by change in absorbance in the 330-340 nm region. […] After 5 minutes of centrifugation at 4000 rpm, the plate is placed in a multi-well spectrometer (SpectraMax, Molecular Devices) for absorption detection. […] Upon complete dissolution of the compound, 200 μM of Alizarin red (ARS) is added to the solution. The ARS-boronate solution is then aliquoted into a 96 multiwell plate (black, flat and clear bottom) 1:1 with appropriate carbohydrate. […] The plate with ARS-boronate mixed with carbohydrate is incubated 20 minutes at room temperature. After 5 minutes of centrifugation at 4000 rpm the plate is placed in a multiwell spectrometer (SpectraMax, Molecular Devices) for absorption detection.

[2] = molecular target: T1, human Insulin Receptor A (hIR-A) (human, UniProt P06213-2 28-1370); assay: SPA, relative hIR-A affinity at 20 mM vs 0 mM glucose, 1.5% HSA
T1 construct: Solubilised semi-purified receptor captured on SPA beads by antibody 83-7
Experimental: (§1) BHK cells over-expressing human Insulin Receptor A (hIR-A) were lysed in 50 mM Hepes pH 8.0, 150 mM NaCl, 1% Triton X-100, 2 mM EDTA and 10% glycerol. The cleared cell lysate was batch absorbed with wheat germ agglutinin (WGA)-agarose (Lectin from Triticum vulgaris-Agarose, L1394, Sigma-Aldrich Steinheim, Germany) for 90 minutes. The receptors were washed with 20 volumes 50 mM Hepes pH 8.0, 150 mM NaCl and 0.1% Triton X-100, where after the receptors were eluted with 50 mM Hepes pH 8.0, 150 mM NaCl, 0.1% Triton X-100, 0.5 M n-Acetyl Glucosamine and 10% glycerol. All buffers contained Complete (Roche Diagnostic GmbH, Mannheim, Germany) as described in Andersen et al. 2017 PLos One 12.
(§2) In order to test the glucose sensitivity, the binding experiments were set up in absence or presence of 20 mM glucose. The plates were rocked gently for 22.5 hours at 22° C., centrifuged for 5 minutes at 1000 rpm and counted in TopCounter (Perkin Elmer). Data points were fitted to a four-parameter logistic model, whereby the relative affinity of the analogue compared to human insulin (within the same plate) was determined.

[3] = molecular target: T1, human Insulin Receptor A (hIR-A); assay: SPA competition vs 125I-insulin, hIR-A, 1.5% HSA, no glucose
Experimental: as §1, §2

[4] = molecular target: T2, human Insulin Receptor A (hIR-A) (human, UniProt P06213-2 28-1370); assay: SPA, displacement of 125I-insulin from solubilised hIR-A, 1.5% HSA, no glucose; affinity relative to human insulin
T2 construct: Solubilized semi-purified receptor captured on SPA beads through antibody 83-7
Experimental: as §1, §2

[5] = molecular target: T2, human Insulin Receptor A (hIR-A); assay: SPA, displacement of 125I-insulin from solubilised hIR-A, 1.5% HSA; increase in relative affinity from 0 to 20 mM glucose
Experimental: as §1, §2

[6] = molecular target: T3, human Insulin Receptor A (hIR-A) (human, UniProt P06213-2 28-1370); assay: SPA, competition with 125I-insulin on solubilised hIR-A, relative to human insulin
T3 construct: Solubilised, semi-purified receptor
Experimental: as §1, §2

[7] = molecular target: T3, human Insulin Receptor A (hIR-A); assay: SPA, relative hIR-A affinity at 20 mM over 0 mM glucose
Experimental: as §1, §2

| HIR glucose factor, 20 mM glucose 1.5% HSA [2] | HIR affinity relative HI (%), 1.5% HSA [3] | other results | Molecule |
| --- | --- | --- | --- |
|  |  | affinity to glucose compared with the diboron compounds [1]: weaker affinity to glucose | O=C(O)c1cc2c(c(C(F)(F)F)c1)COB2O [Example 42, 1-Hydroxy-4-(trifluoromethyl)-1,3-dihydrobenzo[c][1,2]oxaborole-6-carboxylic acid] |
|  |  | affinity to glucose compared with the diboron compounds [1]: weaker affinity to glucose | O=C(O)c1cc(F)c2c(c1)B(O)OC2 [Example 43, 4-fluoro-1-hydroxy-1,3-dihydrobenzo[c][1,2]oxaborole-6-carboxylic acid] |
| 5.9 fold | 2.2% |  | Compound of Example 166 (ligand, not fully specified; diboron group from building block of example 20; sites only in drawing) chain 1: GIVEQCCTSICSLEQLENYCNK chain 2: FVNQHLCGSHLVEALYLVCGERGFHYPK |
|  |  | HIR affinity relative HI (%), 1.5% HSA [4]: 0.1%; HIR glucose factor, 20 mM glucose 1.5% HSA [5]: 18.4 fold | Compound of Example 350 (ligand, diboron group of building block of Example 37 on amino group(s); site(s) shown only in the drawing) chain 1: GIVEQCCTSICSLEQLENYCNK chain 2: FVNQHLCGSHLVEALYLVCGERGFHYPK |
|  |  | HIR affinity relative HI (%), 1.5% HSA [6]: 0.2%; HIR glucose factor, 20 mM glucose 1.5% HSA [7]: 12.1 fold | compound of Example 272: A14E A22K B25H desB27 desB30 human insulin conjugated with building block of example 29 (ligand, not fully specified; diboron group(s) of example 29, sites only in drawing, number and sites of diboron groups only in drawing) chain 1: GIVEQCCTSICSLEQLENYCNK chain 2: FVNQHLCGSHLVEALYLVCGERGFHYPK |
|  |  | HIR glucose factor, 20 mM glucose 1.5% HSA [5]: 5.2 fold | Compound of Example 352 (ligand, diboron group of building block of Example 40 on amino group(s); site(s) shown only in the drawing) chain 1: GIVEQCCTSICSLEQLENYCNK chain 2: FVNQHLCGSHLVEALYLVCGERGFHYPK |
|  |  | HIR affinity relative HI (%), 1.5% HSA [4]: 1%; HIR glucose factor, 20 mM glucose 1.5% HSA [5]: 4.7 fold | Compound of Example 349 (ligand, diboron group of building block of Example 38 on amino group(s); site(s) shown only in the drawing) chain 1: GIVEQCCTSICSLEQLENYCNK chain 2: FVNQHLCGSHLVEALYLVCGERGFHYPK |
| 3 fold | 5.3% |  | Compound of Example 155 (ligand, not fully specified; diboron group from building block of example 19; sites only in drawing) chain 1: GIVEQCCTSICSLEQLENYCNK chain 2: FVNQHLCGSHLVEALYLVCGERGFHYPK |
| 3.2 fold | 4% |  | Compound of Example 139 (ligand, diboron group from building block of example 9; sites only in drawing) chain 1: GIVEQCCTSICSLEQLENYCNK chain 2: FVNQHLCGSHLVEALYLVCGERGFHYPK |
|  |  | HIR affinity relative HI (%), 1.5% HSA [4]: 0.2%; HIR glucose factor, 20 mM glucose 1.5% HSA [5]: 7.3 fold | Compound of Example 348 (ligand, diboron group of building block of Example 39 on amino group(s); site(s) shown only in the drawing) chain 1: GIVEQCCTSICSLEQLENYCNK chain 2: FVNQHLCGSHLVEALYLVCGERGFHYPK |
| 1.3 fold | 13.3% |  | Compound of Example 150 (ligand, not fully specified; diboron group from building block of example 18; sites only in drawing) chain 1: GIVEQCCTSICSLEQLENYCNK chain 2: FVNQHLCGSHLVEALYLVCGERGFHYPK |
|  |  | HIR glucose factor, 20 mM glucose 1.5% HSA [7]: 7.1 fold | compound of Example 271: A14E A22K B25H desB27 desB30 human insulin conjugated with building block of example 22 (ligand, not fully specified; diboron group(s) of example 22, sites only in drawing, number and sites of diboron groups only in drawing) chain 1: GIVEQCCTSICSLEQLENYCNK chain 2: FVNQHLCGSHLVEALYLVCGERGFHYPK |
| 2.8 fold | 6.7% |  | Compound of Example 149 (ligand, not fully specified; diboron group from building block of example 15; sites only in drawing) chain 1: GIVEQCCTSICSLEQLENYCNK chain 2: FVNQHLCGSHLVEALYLVCGERGFHYPK |
| 4.5 fold | 3.5% |  | Compound of Example 146 (ligand, not fully specified; diboron group from building block of example 16; sites only in drawing) chain 1: GIVEQCCTSICSLEQLENYCNK chain 2: FVNQHLCGSHLVEALYLVCGERGFHYPK |
| 2.9 fold | 4.9% |  | Compound of Example 152 (ligand, not fully specified; diboron group from building block of example 15; sites only in drawing) chain 1: GIVEQCCTSICSLEQLENYCNK chain 2: FVNQHLCGSHLVEALYLVCGERGFHYPGK |
| 3.7 fold | 6.1% |  | Compound of Example 154 (ligand, not fully specified; diboron group from building block of example 19; sites only in drawing) chain 1: GIVEQCCTSICSLEQLENYCNK chain 2: FVNQHLCGSHLVEALYLVCGERGFHYPGK |
| 9.9 fold | 2% |  | Compound of Example 158 (ligand, not fully specified; diboron group from building block of example 16; sites only in drawing) chain 1: GIVEQCCTSICSLEQLENYCNK chain 2: FVNQHLCGSHLVEALYLVCGERGFHYPGK |
| 2.3 fold | 8.6% |  | Compound of Example 141 (ligand, diboron group from building block of example 2; sites only in drawing) chain 1: GIVEQCCTSICSLEQLENYCNK chain 2: FVNQHLCGSHLVEALYLVCGERGFHYPK |
